Experimental data as given in US20180155413A1 (AstraZeneca / MedImmune, published 2018).
Like-named read-outs stand apart in the source and are kept apart here.

Columns and labels:
Experiment in all cases: cell-based or functional assay
[1] = target: HA of B/Malaysia/2506/2004 (victoria) (influenza B virus)
[2] = target: HA of A/Shan dong/9/93 (H3N2) (influenza A virus)
[3] = target: T1, HA of A/Wilson Smith N/33 (H1N1) (influenza A virus, UniProt P03454 18-565)
[4] = target: HA of ca B/Beijing/243/97 (victoria) (influenza B virus)
[5] = target: HA of A/California/07/2009 (H1N1) (influenza A virus)
[6] = target: HA of B/Sichuan/379/99 (yamagata) (influenza B virus)
[7] = target: HA of B/Ohio/1/2005 (victoria) (influenza B virus)
[8] = target: HA of B/Hong Kong/330/2001 (victoria) (influenza B virus)
[9] = target: HA of ca A/mallard/Alberta/89/85 (H6N2) (influenza A virus)
[10] = target: HA of ca A/Panama/2007/99 (H3N2) (influenza A virus)
[11] = target: HA of ca A/Perth/16/2009 (H3N2) (influenza A virus)
[12] = target: HA of A/Washington/24/2012 (H1N1) (influenza A virus)
[13] = target: HA of A/New Hampshire/04/2010 (H1N1) (influenza A virus)
[14] = target: HA of ca A/New Caledonia/20/99 (H1N1) (influenza A virus)
[15] = target: HA of A/Berlin/93/2011 (H3N2) (influenza A virus)
[16] = target: HA of A/Bolivia/559/2013 (H1N1) (influenza A virus)
[17] = target: HA of A/Minnesota/11/2010 (H3N2v) (influenza A virus)
[18] = target: HA of A/Shan dong/9/93 (H3N2) (influenza A virus); remark: listed apart in the source
[19] = target: HA of A/Palau/6759/2014 (H3N2) (influenza A virus)
[20] = target: HA of A/New Caledonia/71/2014 (H3N2) (influenza A virus)
[21] = target: HA of ca A/Brit. Columbia/CN-6/04 (H7N3-LP) (influenza A virus)
[22] = target: HA of A/Texas/50/2012 (H3N2) (influenza A virus)
[23] = target: HA of A/Fort Monmouth/1/47 (H1N1) (influenza A virus)
[24] = target: HA of A/Switzerland/9715293/2013 (H3N2) (influenza A virus)
[25] = target: T1, HA of A/Wilson Smith N/33 (H1N1); remark: listed apart in the source
[26] = target: HA of A/AmericanSomoa/4786/2013 (H3N2) (influenza A virus)
[27] = target: HA of A/Brisbane/10/2010 (H1N1) (influenza A virus)
[28] = target: HA of A/California/7/2004 (H3N2) (influenza A virus)
[29] = target: HA of A/California/07/2009 (H1N1) (influenza A virus); remark: listed apart in the source
[30] = target: HA of ca A/Sydney/5/97 (H3N2) (influenza A virus)
[31] = target: HA of A/Victoria/361/2011 (H3N2) (influenza A virus)
[32] = target: HA of A/Solomon Island/3/2006 (H1N1) (influenza A virus)
[33] = target: HA of A/Shenzhen/227/95 (H1N1) (influenza A virus)
[34] = target: HA of A/Beijing/262/95 (H1N1) (influenza A virus)
[35] = target: HA of ca A/Japan/57 (H2N2) (influenza A virus)
[36] = target: HA of A/Wisconsin/67/2005 (H3N2) (influenza A virus)
[37] = target: HA of A/Puerto Rico/8/34 (H1N1) (influenza A virus, UniProt P03452 18-565)
Sequence of HA of A/Puerto Rico/8/34 (H1N1) (P03452 18-565 limits assumed): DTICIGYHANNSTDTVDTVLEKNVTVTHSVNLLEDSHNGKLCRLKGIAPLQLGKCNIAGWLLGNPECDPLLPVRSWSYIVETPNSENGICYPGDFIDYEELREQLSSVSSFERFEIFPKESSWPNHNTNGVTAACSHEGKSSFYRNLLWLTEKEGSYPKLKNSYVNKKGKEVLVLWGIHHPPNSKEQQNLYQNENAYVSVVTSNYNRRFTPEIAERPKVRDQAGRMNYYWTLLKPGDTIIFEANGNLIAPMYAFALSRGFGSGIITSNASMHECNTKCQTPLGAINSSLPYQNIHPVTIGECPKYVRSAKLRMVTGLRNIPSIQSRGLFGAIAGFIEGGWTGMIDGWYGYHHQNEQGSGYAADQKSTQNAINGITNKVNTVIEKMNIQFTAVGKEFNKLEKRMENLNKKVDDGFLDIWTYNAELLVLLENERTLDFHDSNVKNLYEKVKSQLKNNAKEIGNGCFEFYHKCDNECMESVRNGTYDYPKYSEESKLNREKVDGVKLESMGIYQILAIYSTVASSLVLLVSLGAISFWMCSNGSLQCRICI

[38] = target: HA of ca A/South Dakota/6/2007 (H1N1) (influenza A virus)
[39] = target: HA of A/Hong Kong/8/68 (H3N2) (influenza A virus)
[40] = target: HA of A/Victoria/3/75 (H3N2) (influenza A virus)
[41] = target: HA of ca A/Wuhan/359/95 (H3N2) (influenza A virus)

T1 sequence (P03454 18-565 limits assumed): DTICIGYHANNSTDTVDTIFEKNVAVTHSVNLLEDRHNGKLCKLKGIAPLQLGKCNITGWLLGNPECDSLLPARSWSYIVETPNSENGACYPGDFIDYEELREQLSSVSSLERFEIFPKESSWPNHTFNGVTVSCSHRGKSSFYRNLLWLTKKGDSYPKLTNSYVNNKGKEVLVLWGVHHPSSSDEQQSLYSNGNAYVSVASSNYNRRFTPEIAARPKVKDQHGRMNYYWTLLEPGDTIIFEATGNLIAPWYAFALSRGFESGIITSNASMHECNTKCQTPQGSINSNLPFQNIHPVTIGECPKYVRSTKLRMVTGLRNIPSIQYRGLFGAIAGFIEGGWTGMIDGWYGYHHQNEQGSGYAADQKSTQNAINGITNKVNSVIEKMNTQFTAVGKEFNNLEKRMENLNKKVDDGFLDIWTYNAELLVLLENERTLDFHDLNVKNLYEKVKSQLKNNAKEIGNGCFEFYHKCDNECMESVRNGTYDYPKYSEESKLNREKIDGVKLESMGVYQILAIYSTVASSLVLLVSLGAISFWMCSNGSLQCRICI

B1: GL20/39 BiS4 100/44 (bispecific antibody)
light: DIQMTQSPSSLSASVGDRVTITCRTSQSLSSYTHWYQQKPGKAPKLLIYAASSRGSGVPSRFSGSGSGTDFTLTISSLQPEDFATYYCQQSRTFGQGTKVEIKRTVAAPSVFIFPPSDEQLKSGTASVVCLLNNFYPREAKVQWKVDNALQSGNSQESVTEQDSKDSTYSLSSTLTLSKADYEKHKVYACEVTHQGLSSPVTKSFNRGEC
heavy: not shown
- Neutralization (IC50) [1]: 25.8 nM
- Neutralization (IC50) [2]: 30.3 nM
- Neutralization (IC50) [3]: 16.3 nM
- Neutralization (IC50) [4]: 44.3 nM
- Neutralization (IC50) [5]: 20.6 nM
- Neutralization (IC50) [6]: 7.8 nM
- Neutralization (IC50) [7]: 16.5 nM
- Neutralization (IC50) [8]: 75.8 nM
- Neutralization (IC50) [9]: 6.5 nM
- Neutralization (IC50) [10]: 28.5 nM
- Neutralization (IC50) [11]: 4 nM
- Neutralization (IC50) [12]: 2.1 nM
- Neutralization (IC50) [13]: 0.4 nM
- Neutralization (IC50) [14]: 6.2 nM
- Neutralization (IC50) [15]: 1.1 nM
- Neutralization (IC50) [16]: 0.9 nM
- Neutralization (IC50) [17]: 17.1 nM
- Neutralization (IC50) [18]: 18.3 nM
- Neutralization (IC50) [19]: 4.6 nM
- Neutralization (IC50) [20]: 0.8 nM
- Neutralization (IC50) [21]: 18.3 nM
- Neutralization (IC50) [22]: 3.1 nM
- Neutralization (IC50) [23]: 5.2 nM
- Neutralization (IC50) [24]: 0.9 nM
- Neutralization (IC50) [25]: 9.5 nM
- Neutralization (IC50) [26]: 0.8 nM
- Neutralization (IC50) [27]: 9.8 nM
- Neutralization (IC50) [28]: 10.5 nM
- Neutralization (IC50) [29]: 10.9 nM
- Neutralization (IC50) [30]: 22.6 nM
- Neutralization (IC50) [31]: 5.2 nM
- Neutralization (IC50) [32]: 4.4 nM
- Neutralization (IC50) [33]: 7.9 nM
- Neutralization (IC50) [34]: 10.6 nM
- Neutralization (IC50) [35]: 5.3 nM
- Neutralization (IC50) [36]: 10.3 nM
- Neutralization (IC50) [37]: 18.6 nM
- Neutralization (IC50) [38]: 6.8 nM
- Neutralization (IC50) [39]: 3.3 nM
- Neutralization (IC50) [40]: 5.2 nM
- Neutralization (IC50) [41]: 16.7 nM

B2: GL20 IgG (antibody, V domains shown)
VH: QVQLQQSGPGLVKPSQTLSLTCAISGDSVSSYNAVWNWIRQSPSRGLEWLGRTYYRSGWYNDYAESVKSRITINPDTSKNQFSLQLNSVTPEDTAVYYCARSGHITVFGVNVDAFDMWGQGTMVTVSS
VL: DIQMTQSPSSLSASVGDRVTITCRTSQSLSSYTHWYQQKPGKAPKLLIYAASSRGSGVPSRFSGSGSGTDFTLTISSLQPEDFATYYCQQSRTFGQGTKVEIK
- Neutralization (IC50) [1]: > 1000 nM
- Neutralization (IC50) [2]: 19.2 nM
- Neutralization (IC50) [3]: 13 nM
- Neutralization (IC50) [4]: > 1000 nM
- Neutralization (IC50) [5]: 18.6 nM
- Neutralization (IC50) [6]: > 1000 nM
- Neutralization (IC50) [7]: > 1000 nM
- Neutralization (IC50) [8]: > 1000 nM
- Neutralization (IC50) [9]: 4.8 nM
- Neutralization (IC50) [10]: 44.2 nM
- Neutralization (IC50) [11]: 4.2 nM
- Neutralization (IC50) [12]: 1.4 nM
- Neutralization (IC50) [13]: 0.4 nM
- Neutralization (IC50) [14]: 4.2 nM
- Neutralization (IC50) [15]: 1.1 nM
- Neutralization (IC50) [16]: 0.9 nM
- Neutralization (IC50) [17]: 11.1 nM
- Neutralization (IC50) [18]: 21.8 nM
- Neutralization (IC50) [19]: 6.8 nM
- Neutralization (IC50) [20]: 1 nM
- Neutralization (IC50) [21]: 7.4 nM
- Neutralization (IC50) [22]: 4.8 nM
- Neutralization (IC50) [23]: 6.1 nM
- Neutralization (IC50) [24]: 0.3 nM
- Neutralization (IC50) [25]: 7.6 nM
- Neutralization (IC50) [26]: 0.9 nM
- Neutralization (IC50) [27]: 10.5 nM
- Neutralization (IC50) [28]: 14.2 nM
- Neutralization (IC50) [29]: 10.2 nM
- Neutralization (IC50) [30]: 32.1 nM
- Neutralization (IC50) [31]: 5.7 nM
- Neutralization (IC50) [32]: 4.3 nM
- Neutralization (IC50) [33]: 9.3 nM
- Neutralization (IC50) [34]: 10.8 nM
- Neutralization (IC50) [35]: 5 nM
- Neutralization (IC50) [36]: 10.7 nM
- Neutralization (IC50) [37]: 10 nM
- Neutralization (IC50) [38]: 10.8 nM
- Neutralization (IC50) [39]: 3 nM
- Neutralization (IC50) [40]: 3 nM
- Neutralization (IC50) [41]: 16.3 nM
